# In US20170165339A1 (IMMATICS BIOTECHNOLOGIES, published 2017):
# Molecular target: HLA-A*02 (human)
# Assay: UV peptide-exchange ELISA, yield grade
row,Binder,peptide exchange yield
1,KMVGLVVAI [KMVGLVVAI (SEQ ID NO: 53)],50 to 75%
2,YLLDPSITL [YLLDPSITL (SEQ ID NO: 29)],50 to 75%
3,ALSPSYLTV [ALSPSYLTV (SEQ ID NO: 11)],50 to 75%
4,LLYPEPWSV [LLYPEPWSV (SEQ ID NO: 1)],≥ 75%
5,KLEENGDLYL [KLEENGDLYL (SEQ ID NO: 3)],≥ 75%
6,ILDHEVPSL [ILDHEVPSL (SEQ ID NO: 7)],50 to 75%
7,SLATKIVEA [SLATKIVEA (SEQ ID NO: 55)],50 to 75%
8,TITETTVEV [TITETTVEV (SEQ ID NO: 31)],50 to 75%
9,TLFGYSVVL [TLFGYSVVL (SEQ ID NO: 74)],50 to 75%
10,SLFPDSLIV [SLFPDSLIV (SEQ ID NO: 64)],20 to 49%
11,ALFDSLRHV [ALFDSLRHV (SEQ ID NO: 6)],50 to 75%
12,FLAVGLVDV [FLAVGLVDV (SEQ ID NO: 69)],50 to 75%
13,ALMAMLVYV [ALMAMLVYV (SEQ ID NO: 13)],20 to 49%
14,TMDSVLVTV [TMDSVLVTV (SEQ ID NO: 25)],50 to 75%
15,RLMEENWNA [RLMEENWNA (SEQ ID NO: 27)],50 to 75%
16,LLDSVSRL [LLDSVSRL (SEQ ID NO: 42)],< 20%
17,ALLERGELFV [ALLERGELFV (SEQ ID NO: 47)],50 to 75%
18,LLLGDSALYL [LLLGDSALYL (SEQ ID NO: 70)],50 to 75%
19,ALNPELVQA [ALNPELVQA (SEQ ID NO: 62)],20 to 49%
20,AMIEEVFEA [AMIEEVFEA (SEQ ID NO: 30)],20 to 49%
21,TLDEKVAEL [TLDEKVAEL (SEQ ID NO: 24)],50 to 75%
22,ILLDLTDNRL [ILLDLTDNRL (SEQ ID NO: 18)],50 to 75%
23,SQIPAQPSV [SQIPAQPSV (SEQ ID NO: 63)],20 to 49%
24,TLLQRLTEV [TLLQRLTEV (SEQ ID NO: 67)],50 to 75%
25,FVDPNTQEKV [FVDPNTQEKV (SEQ ID NO: 22)],20 to 49%

row,Binder,peptide exchange yield
1,VLHSKFWVV [VLHSKFWVV (SEQ ID NO: 71)],50 to 75%
2,TVFTDHMLTV [TVFTDHMLTV (SEQ ID NO: 57)],20 to 49%
3,TVVTRLDEI [TVVTRLDEI (SEQ ID NO: 78)],20 to 49%
4,TLIDEQDIPLV [TLIDEQDIPLV (SEQ ID NO: 77)],50 to 75%
5,GIVAHIQEV [GIVAHIQEV (SEQ ID NO: 5)],50 to 75%
6,QVIEDSTGV [QVIEDSTGV (SEQ ID NO: 48)],20 to 49%
7,FLLATEVVTV [FLLATEVVTV (SEQ ID NO: 34)],≥ 75%
8,SLSNRLYYL [SLSNRLYYL (SEQ ID NO: 68)],50 to 75%
9,SLADTNSLAVV [SLADTNSLAVV (SEQ ID NO: 36)],50 to 75%
10,FLGPRIIGL [FLGPRIIGL (SEQ ID NO: 38)],50 to 75%
11,SISDNVWEV [SISDNVWEV (SEQ ID NO: 19)],50 to 75%
12,FLVDGSYSI [FLVDGSYSI (SEQ ID NO: 9)],50 to 75%
13,YLLPLLPAL [YLLPLLPAL (SEQ ID NO: 58)],50 to 75%
14,VTFKEYVTV [VTFKEYVTV (SEQ ID NO: 79)],20 to 49%
15,AIQDEIRSV [AIQDEIRSV (SEQ ID NO: 21)],50 to 75%
16,YTLREVDTV [YTLREVDTV (SEQ ID NO: 73)],20 to 49%
17,SQFPLPLAV [SQFPLPLAV (SEQ ID NO: 46)],20 to 49%
18,ALQEELTEL [ALQEELTEL (SEQ ID NO: 26)],50 to 75%
19,AVGPVHNSV [AVGPVHNSV (SEQ ID NO: 76)],20 to 49%
20,AVIKFLELL [AVIKFLELL (SEQ ID NO: 75)],50 to 75%
21,KLIFSVEAV [KLIFSVEAV (SEQ ID NO: 66)],50 to 75%
22,ILFHGVFYA [ILFHGVFYA (SEQ ID NO: 50)],50 to 75%
23,ALNIATHVL [ALNIATHVL (SEQ ID NO: 49)],50 to 75%
24,FLTAINYLL [FLTAINYLL (SEQ ID NO: 72)],50 to 75%
25,KLMPGTYTL [KLMPGTYTL (SEQ ID NO: 4)],≥ 75%

row,Binder,peptide exchange yield
1,NALDKVLSV [NALDKVLSV (SEQ ID NO: 81)],50 to 75%
2,YIKTELISV [YIKTELISV (SEQ ID NO: 33)],50 to 75%
3,FLLPFSTVYL [FLLPFSTVYL (SEQ ID NO: 35)],50 to 75%
4,LLFSRLCGA [LLFSRLCGA (SEQ ID NO: 51)],≥ 75%
5,KLLDPQEFTL [KLLDPQEFTL (SEQ ID NO: 59)],50 to 75%
6,KLYEADFVL [KLYEADFVL (SEQ ID NO: 80)],20 to 49%
7,GIAGSLKTV [GIAGSLKTV (SEQ ID NO: 10)],50 to 75%
8,SVVPDVRSV [SVVPDVRSV (SEQ ID NO: 65)],20 to 49%
9,VQLDSIEDLEV [VQLDSIEDLEV (SEQ ID NO: 32)],50 to 75%
10,AIVKEIVNI [AIVKEIVNI (SEQ ID NO: 61)],20 to 49%
11,GLLPLLHRA [GLLPLLHRA (SEQ ID NO: 12)],≥ 75%
12,FLHDEKEGIYI [FLHDEKEGIYI (SEQ ID NO: 56)],50 to 75%
13,VLIDPQWVLTA [VLIDPQWVLTA (SEQ ID NO: 40)],50 to 75%
14,YTLDIPVLFGV [YTLDIPVLFGV (SEQ ID NO: 16)],≥ 75%
15,ILAPFSVDL [ILAPFSVDL (SEQ ID NO: 37)],50 to 75%
16,YLDLSHNQL [YLDLSHNQL (SEQ ID NO: 15)],50 to 75%
17,SLFETAWEA [SLFETAWEA (SEQ ID NO: 44)],50 to 75%
18,GLSQITNQL [GLSQITNQL (SEQ ID NO: 20)],50 to 75%
19,SLFSDEFKV [SLFSDEFKV (SEQ ID NO: 23)],50 to 75%
20,SLPNGKPVSV [SLPNGKPVSV (SEQ ID NO: 28)],50 to 75%
21,ILAKDLFEI [ILAKDLFEI (SEQ ID NO: 14)],≥ 75%
22,ALFENTPKA [ALFENTPKA (SEQ ID NO: 41)],20 to 49%
23,HLLEGSVGV [HLLEGSVGV (SEQ ID NO: 39)],50 to 75%
24,ALFAPLVHL [ALFAPLVHL (SEQ ID NO: 60)],50 to 75%
25,VLNPLITAV [VLNPLITAV (SEQ ID NO: 54)],50 to 75%
